Data published in article doi:10.1101/719815 (bioRxiv, 2019).
Values belong to the binder of their own block, whether it stands above or below them.

B1: 6His-Cdc24_(428-854) (domain or fragment)
chain: SSDDNNTKELEAALDISKNIARSINENQRRTENHQVVKKLYGRVVNWKGYRISKFGELLYFDKVFISTTNSSSEPEREFEVYLFEKIIILFSEVVTKKSASSLILKKKSSTSASISASNITDNNGSPHHSYHKRHSNSSSSNNIHLSSSSAAAIIHSSTNSSDNNSNNSSSSSLFKLSANEPKLDLRGRIMIMNLNQIIPQNNRSLNITWESIKEQGNFLLKFKNEETRDNWSSCLQQLIHDLKNEQFKARHHSSTSTTSSTAKSSSMMSPTTTMNTPNHHNSRQTHDSMASFSSSHMKRVSDVLPKRRTTSSSFESEIKSISENFKNSIPESSILFRISYNNNSNNTSSSEIFTLLVEKVWNFDDLIMAINSKISNTHNNNISPITKIKYQDEDGDFVVLGSDEDWNVAKEMLAENNEKFLNIRLY

Columns and labels:
[1] = molecular target: SNAP-tagged septin rods (yeast, UniProt P32458;P32468;P32457;P25342); test: SPR
Chain of SNAP-tagged septin rods (P32468 whole entry, chain 2 of 3): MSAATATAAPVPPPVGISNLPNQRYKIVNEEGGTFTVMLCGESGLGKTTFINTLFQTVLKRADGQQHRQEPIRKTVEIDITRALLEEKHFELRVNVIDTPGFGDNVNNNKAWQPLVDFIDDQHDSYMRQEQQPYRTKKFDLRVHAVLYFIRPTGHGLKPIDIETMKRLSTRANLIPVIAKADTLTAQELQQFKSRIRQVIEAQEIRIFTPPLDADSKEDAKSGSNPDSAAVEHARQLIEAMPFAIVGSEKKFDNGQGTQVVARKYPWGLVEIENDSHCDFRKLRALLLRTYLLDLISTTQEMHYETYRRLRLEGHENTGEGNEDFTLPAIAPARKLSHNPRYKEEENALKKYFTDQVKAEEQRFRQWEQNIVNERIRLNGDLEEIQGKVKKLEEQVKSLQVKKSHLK
Chain of SNAP-tagged septin rods (P32457 whole entry, chain 3 of 3): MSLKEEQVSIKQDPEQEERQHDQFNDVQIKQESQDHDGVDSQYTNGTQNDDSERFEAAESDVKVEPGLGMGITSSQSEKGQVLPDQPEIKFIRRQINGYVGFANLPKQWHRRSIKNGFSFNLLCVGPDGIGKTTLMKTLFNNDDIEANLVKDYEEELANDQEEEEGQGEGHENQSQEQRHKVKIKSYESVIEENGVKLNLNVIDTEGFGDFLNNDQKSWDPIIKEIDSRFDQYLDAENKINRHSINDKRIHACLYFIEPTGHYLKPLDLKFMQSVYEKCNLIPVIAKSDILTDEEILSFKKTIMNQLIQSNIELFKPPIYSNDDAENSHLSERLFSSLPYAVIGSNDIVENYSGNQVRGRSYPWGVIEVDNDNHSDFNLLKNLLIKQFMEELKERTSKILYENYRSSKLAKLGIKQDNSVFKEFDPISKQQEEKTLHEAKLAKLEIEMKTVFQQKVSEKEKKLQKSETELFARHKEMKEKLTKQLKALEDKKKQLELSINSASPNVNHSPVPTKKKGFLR
Chain of SNAP-tagged septin rods (P25342 whole entry, chain 4 of 3): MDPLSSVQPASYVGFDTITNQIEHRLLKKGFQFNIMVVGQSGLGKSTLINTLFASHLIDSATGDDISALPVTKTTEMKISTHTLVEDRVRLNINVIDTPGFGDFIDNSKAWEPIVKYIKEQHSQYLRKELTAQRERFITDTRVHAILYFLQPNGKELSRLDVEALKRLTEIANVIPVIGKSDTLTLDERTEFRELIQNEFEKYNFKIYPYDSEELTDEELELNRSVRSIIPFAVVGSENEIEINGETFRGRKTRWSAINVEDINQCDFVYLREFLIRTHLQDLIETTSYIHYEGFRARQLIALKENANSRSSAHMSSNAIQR

[2] = molecular target: B1; test: SPR
[3] = molecular target: T1, 6His-Cdc24_(428-854) _(K801A) (yeast, UniProt P11433 428-854, K801A); test: SPR
T1 sequence: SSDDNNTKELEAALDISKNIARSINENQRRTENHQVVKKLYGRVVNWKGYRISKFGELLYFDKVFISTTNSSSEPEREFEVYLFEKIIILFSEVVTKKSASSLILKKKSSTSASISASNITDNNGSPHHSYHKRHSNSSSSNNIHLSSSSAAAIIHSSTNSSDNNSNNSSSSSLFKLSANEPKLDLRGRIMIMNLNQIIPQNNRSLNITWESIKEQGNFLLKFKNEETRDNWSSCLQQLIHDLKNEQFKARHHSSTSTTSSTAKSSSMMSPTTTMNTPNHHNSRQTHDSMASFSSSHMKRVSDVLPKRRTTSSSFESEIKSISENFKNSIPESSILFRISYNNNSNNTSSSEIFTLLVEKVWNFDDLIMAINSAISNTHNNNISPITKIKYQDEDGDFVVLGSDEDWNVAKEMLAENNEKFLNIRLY

[4] = molecular target: T2, Cdc24_(428-854) _(K525E) (yeast, UniProt P11433 428-854, K525E); test: SPR
T2 sequence: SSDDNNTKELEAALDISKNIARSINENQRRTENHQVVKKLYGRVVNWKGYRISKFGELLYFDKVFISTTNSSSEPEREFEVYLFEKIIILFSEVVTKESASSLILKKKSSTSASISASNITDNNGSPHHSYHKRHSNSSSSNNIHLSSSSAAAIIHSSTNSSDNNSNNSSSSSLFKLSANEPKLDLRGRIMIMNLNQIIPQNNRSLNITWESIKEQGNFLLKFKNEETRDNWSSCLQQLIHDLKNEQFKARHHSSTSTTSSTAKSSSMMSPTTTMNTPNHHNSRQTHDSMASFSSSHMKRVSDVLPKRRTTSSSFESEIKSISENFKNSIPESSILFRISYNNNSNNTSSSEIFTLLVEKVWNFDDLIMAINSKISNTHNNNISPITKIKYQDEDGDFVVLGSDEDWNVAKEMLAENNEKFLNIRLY

[5] = molecular target: T3, Cdc24_(428-854) _(K525E) _(K801A) (yeast, UniProt P11433 428-854, K525E | K801A); test: SPR
T3 sequence: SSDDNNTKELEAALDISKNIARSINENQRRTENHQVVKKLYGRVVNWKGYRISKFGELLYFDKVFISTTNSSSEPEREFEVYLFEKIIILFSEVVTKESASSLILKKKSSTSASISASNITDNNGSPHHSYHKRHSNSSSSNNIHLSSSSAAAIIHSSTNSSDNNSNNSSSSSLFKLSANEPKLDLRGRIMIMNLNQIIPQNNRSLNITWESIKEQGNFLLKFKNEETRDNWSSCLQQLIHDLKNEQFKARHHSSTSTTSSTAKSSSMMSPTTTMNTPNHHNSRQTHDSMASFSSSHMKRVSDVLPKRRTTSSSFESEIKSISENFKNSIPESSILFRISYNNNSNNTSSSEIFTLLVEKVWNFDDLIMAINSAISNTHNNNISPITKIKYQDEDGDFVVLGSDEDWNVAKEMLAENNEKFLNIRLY

[6] = molecular target: B1; test: pull-down

Binder: B1
Kd [1]: 351 nM

Kd [2]: 257 nM
binding result [3]: binds
binding result [4]: binds
binding result [5]: binds
B2: 6His-Cdc11-SNAP (natural protein)
chain: MSGIIDASSALRKRKHLKRGITFTVMIVGQSGSGRSTFINTLCGQQVVDTSTTILLPTDTSTEIDLQLREETVELEDDEGVKIQLNIIDTPGFGDSLDNSPSFEIISDYIRHQYDEILLEESRVRRNPRFKDGRVHCCLYLINPTGHGLKEIDVEFIRQLGSLVNIIPVISKSDSLTRDELKLNKKLIMEDIDRWNLPIYNFPFDEDEISDEDYETNMYLRTLLPFAIIGSNEVYEMGGDVGTIRGRKYPWGILDVEDSSISDFVILRNALLISHLHDLKNYTHEILYERYRTEALSGESVAAESIRPNLTKLNGSSSSSTTTRRNTNPFKQSNNINNDVLNPASDMHGQSTGENNETYMTREEQIRLEEERLKAFEERVQQELLLKRQELLQREKELREIEARLEKEAKIKQEE
modifications: biotinylated with BG-Biotin (on the SNAP tag)

binding result [6]: binds
B3: GST-Cdc11 (natural protein)
chain: MSGIIDASSALRKRKHLKRGITFTVMIVGQSGSGRSTFINTLCGQQVVDTSTTILLPTDTSTEIDLQLREETVELEDDEGVKIQLNIIDTPGFGDSLDNSPSFEIISDYIRHQYDEILLEESRVRRNPRFKDGRVHCCLYLINPTGHGLKEIDVEFIRQLGSLVNIIPVISKSDSLTRDELKLNKKLIMEDIDRWNLPIYNFPFDEDEISDEDYETNMYLRTLLPFAIIGSNEVYEMGGDVGTIRGRKYPWGILDVEDSSISDFVILRNALLISHLHDLKNYTHEILYERYRTEALSGESVAAESIRPNLTKLNGSSSSSTTTRRNTNPFKQSNNINNDVLNPASDMHGQSTGENNETYMTREEQIRLEEERLKAFEERVQQELLLKRQELLQREKELREIEARLEKEAKIKQEE
